Measurements: US20140356358A1 (Amgen, published 2014)

Experiments:
[1] = target: T1, human neonatal Fc receptor (hFcRn) (human, UniProt P55899 24-290; P61769 21-119); assay: SPR competition pH 5.5
T1 construct: Biotinylated in the ELISA, Octet and yeast assays; also called human FcRn; huFcRn
Method: (§1) Binding of variant Fc-fragments to human and cynomolgus monkey FcRn was tested using a BIAcore® T100 analysis system (GE Healthcare Bio-Sciences AB Private Limited Liability Company, Uppsala, Sweden) at both pH 5.5 and pH 7.4. The test consisted of incubating various concentrations of the variant Fc-fragments or control Fc-fragments with a fixed amount of human or cynomolgus monkey FcRn under binding conditions and subsequently measuring the amount of free, unbound FcRn in these mixtures by binding to a surface (in a flow cell of a CM5 (Biacore) chip) on which an Fc-fragment was immobilized. […] Thus, the amount of unbound FcRn in the mixture was quantitatively ascertained by surface plasmon resonance through use of the BIAcore® T100 analysis system. […] Initially, a group of 23 variant-Fc-fragments (Fc-5-1 being considered a control) identified in the experiments described above were tested for binding to human FcRn.
(§2) To obtain a reasonable signal for the different molecules and conditions tested, different assay conditions were used. For assays at pH 5.5, 10 nM of human or cynomolgus monkey FcRn was mixed with serial dilutions of the variant and control Fc-fragments being tested (which ranged from 0.1˜2,000 nM) and incubated for 1 hour at room temperature in 10 mM sodium acetate, pH 5.5, 150 mM NaCl, 0.005% P20, 0.1 mg/mL BSA. As positive controls, […] human and cynomolgus monkey FcRn were each incubated in the same solution, for the same time, and at the same temperature described immediately above, but without an added Fc-fragment.

cynomolgus monkey FcRn [2] = target: T2, cynomolgus monkey FcRn (cynomolgus monkey, UniProt Q8SPV9 24-297; Q8SPW0 21-119, limits assumed); assay: SPR competition pH 5.5
T2 construct: also called Cynomolgus FcRn
Method: as §1, §2

[3] = target: T1, human neonatal Fc receptor (hFcRn); assay: SPR competition pH 7.4
Method: as §1
(§3) As positive controls, 10 mM human and cynomolgus monkey FcRn were each incubated in the same solution, for the same time, and at the same temperature described immediately above, but without an added Fc-fragment.

cynomolgus monkey FcRn [4] = target: T2, cynomolgus monkey FcRn; assay: SPR competition pH 7.4
Method: as §1, §3

[5] = target: T1, human neonatal Fc receptor (hFcRn); assay: SPR competition pH 5.5; remark: listed apart in the source
cynomolgus monkey FcRn [6] = target: T2, cynomolgus monkey FcRn; assay: SPR competition pH 5.5; remark: listed apart in the source
[7] = target: T1, human neonatal Fc receptor (hFcRn); assay: SPR competition pH 7.4; remark: listed apart in the source
cynomolgus monkey FcRn [8] = target: T2, cynomolgus monkey FcRn; assay: SPR competition pH 7.4; remark: listed apart in the source

T2 sequence (Q8SPV9 24-297 limits assumed, chain 1 of 2): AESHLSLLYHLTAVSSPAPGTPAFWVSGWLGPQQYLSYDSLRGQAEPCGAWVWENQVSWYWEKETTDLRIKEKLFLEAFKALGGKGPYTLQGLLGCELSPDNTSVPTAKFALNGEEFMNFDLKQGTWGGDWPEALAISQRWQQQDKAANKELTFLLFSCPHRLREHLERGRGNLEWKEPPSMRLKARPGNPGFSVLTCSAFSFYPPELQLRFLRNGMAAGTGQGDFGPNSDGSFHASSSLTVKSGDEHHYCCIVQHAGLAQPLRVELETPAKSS
T2 sequence (Q8SPW0 21-119 limits assumed, chain 2 of 2): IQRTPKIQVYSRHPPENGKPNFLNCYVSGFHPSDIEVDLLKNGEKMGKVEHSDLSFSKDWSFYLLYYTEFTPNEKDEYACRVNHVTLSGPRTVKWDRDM

| EC50 [1] | EC50 (cynomolgus monkey FcRn [2]) | EC50 [3] | EC50 (cynomolgus monkey FcRn [4]) | EC50 [5] | EC50 (cynomolgus monkey FcRn [6]) | EC50 [7] | EC50 (cynomolgus monkey FcRn [8]) | Binder |
| --- | --- | --- | --- | --- | --- | --- | --- | --- |
| 2.6 nM | 2.3 nM | 45 nM | 42 nM | – | – | – | – | variant Fc-fragment Fc-5-1 (other, library L5 isolate; also called variant 5-1) EPKSCDKTHTCPPCPAPELLGGPSVFLFPPKPKDTLMISRTPEVTCVVVDVSHEDPEVKFNWYVDGVEVHNAKTKPREEQYNSTYRVVSVLTVLHQDWLNGKEYKCKVSNKALPAPIEKTISKAKGQPREPQVYTLPPSRDELTKNQVSLTCLVKGFYPSDIAVEWESNGGCGMPIEFCGGGQPENNYKTTPPVLDSDGSFFLYSKLTVDKSRWQQGNVFSCSVMHEALHNHYTQKSLSLSPGK |
| – | – | – | – | 2.3 nM | 2.8 nM | 650 nM | 710 nM | variant Fc-fragment Fc-5-106-M4L (other) EPKSCDKTHTCPPCPAPELLGGPSVFLFPPKPKDTLMISRTPEVTCVVVDVSHEDPEVKFNWYVDGVEVHNAKTKPREEQYNSTYRVVSVLTVLHQDWLNGKEYKCKVSNKALPAPIEKTISKAKGQPREPQVYTLPPSRDELTKNQVSLTCLVKGFYPSDIAVEWESNGGCVFNLFNCGGGQPENNYKTTPPVLDSDGSFFLYSKLTVDKSRWQQGNVFSCSVMHEALHNHYTQKSLSLSPGK |
